Measured values reported in the supplement of paper PMC12764529.
± gives the half width of the 95% confidence interval.

Experiments:
[1] = folding stability dG unfold from trypsin proteolysis; higher = more stable
How it was run: (§1)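 Only designs with AlphaFold2 dimer inter-PAE above 15 were retained; each was a mini-protein under 80 residues with no cysteine, in a PA-tagged cDNA display construct. After digestion with trypsin and chymotrypsin and sequencing, K50 was inferred by Bayesian fitting of counts, and unfolding free energy was derived per protease or combined against a sequence-predicted unfolded-state K50 and a shared folded-state K50.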

[2] = folding stability dG unfold from chymotrypsin proteolysis; higher = more stable
How it was run: as §1

[3] = folding stability dG unfold (combined trypsin and chymotrypsin); higher = more stable
How it was run: as §1

| Sequence | folding stability dG unfold [1] | folding stability dG unfold [2] | folding stability dG unfold [3] |
| --- | --- | --- | --- |
| SAGGSAGGDESSTPPVTTTSTTPLPDGSTVTVTSTTTYPDSTTTTTKTYSNGSTTTSTTTTPGSSAGGSAGG [r6_910_JUSTAS] | -0.0832 ± 0.051 kcal/mol | -0.803 ± 0.35 kcal/mol | -0.285 ± 0.13 kcal/mol |
| SAGGSAGGDGLELKLTFTIPVTARSPLGGSYPVYLRLTLTYRLDDPRWELDLYALDPNGNWYPVSAGGSAGG [r6_393_TrMRF] | 3.66 ± 0.18 kcal/mol | 5.12 ± 0.092 kcal/mol | 4.84 ± 0.1 kcal/mol |
| SAGGSAGGDKKGKPKPQWVTIMFKVPDDDLPPEEIAKEFPGVKIERSPGMYMITVPVNGKWIPFSAGGSAGG [r6_739_TrROS] | 1.02 ± 0.039 kcal/mol | 1.25 ± 0.14 kcal/mol | 1.13 ± 0.093 kcal/mol |
| SAGGSAGGDNWYHITIFRMKIKEVEPRKDPDGEKEPQFNFKIKEVVTIPIPPNDPEKLKDALGASAGGSAGG [r6_738_TrROS] | 0.745 ± 0.079 kcal/mol | 1.84 ± 0.13 kcal/mol | 1.37 ± 0.12 kcal/mol |
| SAGGSAGGDPPNVKIEPEIEPRRDPDGKPYVKIPYTIELPDGRPIQIDMWIDPKNGNQGPHIHISAGGSAGG [r6_298_TrROS] | 0.817 ± 0.24 kcal/mol | 0.486 ± 0.31 kcal/mol | 0.64 ± 0.54 kcal/mol |
| SAGGSAGGDVVIIPEPSEEDKMIFTIVADGEEAPVVLTVEADNLADVVDFLKEHGLAAGHPDDGSAGGSAGG [r6_40_TrMRF] | 0.713 ± 0.065 kcal/mol | 0.637 ± 0.052 kcal/mol | 0.679 ± 0.11 kcal/mol |
| SAGGSAGGDYERDPNNGKMKMKPKVEPPPPPKIIQIQIPFPEEADDFMNELQDNGYPIYLSPGGSAGGSAGG [r6_872_TrROS] | 1.29 ± 0.18 kcal/mol | 0.179 ± 0.14 kcal/mol | 0.745 ± 0.3 kcal/mol |
| SAGGSAGGEDRLLLRVEVIVGGVPFEPVLEVDHPELRELLEEGRVLVVELPGGAVGRLYAEPLASAGGSAGG [r6_478_TrMRF] | 0.7 ± 0.049 kcal/mol | 0.704 ± 0.11 kcal/mol | 0.811 ± 0.1 kcal/mol |
| SAGGSAGGEEAPPPPVTVTVTIEVEENEDGTLTVRIEVRDEATGETRTITVTMTLEELEELAKASAGGSAGG [r6_995_TrROS_Hall] | 2.78 ± 0.11 kcal/mol | 2.56 ± 0.13 kcal/mol | 2.78 ± 0.22 kcal/mol |
| SAGGSAGGEEIAKKLGIEKAEIVEVKDNKITLKVKLKNGEELKIELYIDKKTKEIKIVKIEKVPSAGGSAGG [r6_526_TrROS_Hall] | 2.37 ± 0.079 kcal/mol | 3.11 ± 0.075 kcal/mol | 2.88 ± 0.23 kcal/mol |
| SAGGSAGGEERVRLPITLEVPVPLAPVLLVSPDGSERLVPLPSVTLRITLELELTKEEWEKLLSSAGGSAGG [r6_119_TrMRF] | 3.06 ± 0.2 kcal/mol | 3.36 ± 0.13 kcal/mol | 3.16 ± 0.15 kcal/mol |
| SAGGSAGGEIEILPGAKIVRVERRKDGSLLIVVEVDGKLYLFRFKDGKVEVIELPEGASLEELLSAGGSAGG [r6_680_TrROS_Hall] | 4.23 ± 0.14 kcal/mol | 4.99 ± 0.086 kcal/mol | 4.92 ± 0.087 kcal/mol |
| SAGGSAGGEISPEDIESVETETRTLPNGLKITRTRVRVKKTNQWFELVRIEPLPAEELSEEELKSAGGSAGG [r6_757_TrROS_Hall] | 1.37 ± 0.053 kcal/mol | 1.78 ± 0.062 kcal/mol | 1.59 ± 0.13 kcal/mol |
| SAGGSAGGEIVITLPNVKSKEEAKKAAEKLIEELKKKGIKDKTIKVTVIDEKTGKEYTFTIKLKSAGGSAGG [r6_237_TrROS_Hall] | 3.81 ± 0.15 kcal/mol | 4.38 ± 0.16 kcal/mol | 4.14 ± 0.3 kcal/mol |
| SAGGSAGGEKVEKKEVKVELKIVIVVSEELREMSEEELEELLKELAAKLPGVKEVKIEILPLPESAGGSAGG [r6_710_TrROS_Hall] | 1.04 ± 0.13 kcal/mol | 1.34 ± 0.13 kcal/mol | 1.16 ± 0.13 kcal/mol |
| SAGGSAGGELEELPGLKVVAVFELPGNRRLVLFEAEGGRYLLLVEGEGTRLVPVPEDVSLEELASAGGSAGG [r6_680_TrMRF] | 2.73 ± 0.043 kcal/mol | 3.394 ± 0.031 kcal/mol | 3.179 ± 0.03 kcal/mol |
| SAGGSAGGEMTAEELAEKLAEELKEKGYEVEVEVVEVEVEEDTVRIKIKLKDGRELEIELKIEPSAGGSAGG [r6_617_TrROS_Hall] | 2.58 ± 0.16 kcal/mol | 2.79 ± 0.28 kcal/mol | 2.74 ± 0.25 kcal/mol |
| SAGGSAGGEPETIEIKMTPEELEELARELEKEGYTIEVEVVEEKVVGPDGKEREVVVRVRVEKRSAGGSAGG [r6_857_TrROS_Hall] | 0.991 ± 0.03 kcal/mol | 1.32 ± 0.04 kcal/mol | 1.1 ± 0.099 kcal/mol |

| Sequence | folding stability dG unfold [1] | folding stability dG unfold [2] | folding stability dG unfold [3] |
| --- | --- | --- | --- |
| SAGGSAGGESSRLVAVFKFPPSNPNIKTSISFPSLPKSAKISESQAPFGNEYYLVVVIEVPKNSSAGGSAGG [r6_480_TrMRF] | 2.6 ± 0.16 kcal/mol | 3.88 ± 0.14 kcal/mol | 3.37 ± 0.16 kcal/mol |
| SAGGSAGGEYEISIPNYELTEEKFDPNPGLLTVTYKDPEGKLVTITYKVKPDSIEKVKTETFEPSAGGSAGG [r6_719_JUSTAS] | 0.569 ± 0.022 kcal/mol | 1.14 ± 0.049 kcal/mol | 0.963 ± 0.064 kcal/mol |
| SAGGSAGGFFHIEIEWRPVKLEDLPEEDAANGKELKPGDEIWVIVKIEIYPMPPPKFDKDGELNSAGGSAGG [r6_547_TrROS] | 2.23 ± 0.19 kcal/mol | 3.31 ± 0.23 kcal/mol | 2.77 ± 0.2 kcal/mol |
| SAGGSAGGFKIPPGKTIMIQYPDGWMWRIKVKDGNTHMFKSPEEIEKLLNKPGFEIEIEWFPLDSAGGSAGG [r6_433_TrROS] | 1.63 ± 0.083 kcal/mol | 1.74 ± 0.24 kcal/mol | 1.67 ± 0.19 kcal/mol |
| SAGGSAGGGAVVLEEAFDPVRPERLVLVEVVNEKGEPFRFPVPLEDLEAVFEKLPPGFPVLVLPSAGGSAGG [r6_111_TrMRF] | 0.491 ± 0.021 kcal/mol | 0.135 ± 0.1 kcal/mol | 0.36 ± 0.048 kcal/mol |
| SAGGSAGGGDEVKTFKAKVKLVSVDPETGEQLVLAEVPDGKPILVKVPKSFPLKEDEIVEFELSSAGGSAGG [r6_68_TrMRF] | 1.16 ± 0.027 kcal/mol | 1.31 ± 0.036 kcal/mol | 1.3 ± 0.059 kcal/mol |
| SAGGSAGGGEMELVLTVPPEEVTPEQLLELVEEIREALEKGGAKAEPVKIDPEKGVVILFRVDPSAGGSAGG [r6_850_TrMRF] | -0.273 ± 0.14 kcal/mol | 0.258 ± 0.27 kcal/mol | 0.00838 ± 0.26 kcal/mol |
| SAGGSAGGGEPFVIRVELEWPNNNSIPFNIPFPPGDAITAAKNIASPLRKMGRPIKIKITDIYPSAGGSAGG [r6_721_TrROS] | 0.545 ± 0.13 kcal/mol | 0.0836 ± 0.41 kcal/mol | 0.419 ± 0.16 kcal/mol |
| SAGGSAGGGFILEVDPEKGVAVAYFDPSTGEVVVAVPEGPVYRFASAEEVVAATGKPVVIVPATSAGGSAGG [r6_752_TrMRF] | 1.17 ± 0.024 kcal/mol | 0.702 ± 0.044 kcal/mol | 0.966 ± 0.054 kcal/mol |
| SAGGSAGGGGMTVTITVPVPSPTATYTVSFPSSSATASFTAEPGGPLTITVNAPSVTSITVTVSSAGGSAGG [r6_808_JUSTAS] | 3.03 ± 0.1 kcal/mol | 3.98 ± 0.053 kcal/mol | 3.63 ± 0.11 kcal/mol |
| SAGGSAGGGGTLTIEVDAPAGAKKINIELPGGTVSNLSYDPSTGKATIPFDTPEQAKAVEALVGSAGGSAGG [r6_745_TrMRF] | -0.493 ± 0.097 kcal/mol | 0.098 ± 0.088 kcal/mol | -0.086 ± 0.058 kcal/mol |
| SAGGSAGGGKPKVEIEYNGKTYEFDSLEELVAEAKEPVRIRLPNGEEIELSREDLKNLTVRLVPSAGGSAGG [r6_684_TrROS_Hall] | 1.55 ± 0.018 kcal/mol | 2.29 ± 0.056 kcal/mol | 1.99 ± 0.043 kcal/mol |
| SAGGSAGGGKRLEITRTYFIPPDDIDKLKDLPGIREVTPHRMPDGYYMITVTIRIPISADQLKASAGGSAGG [r6_155_TrROS] | 1.7 ± 0.051 kcal/mol | 2.1 ± 0.084 kcal/mol | 1.94 ± 0.2 kcal/mol |
| SAGGSAGGGMKFVKVTLEYAGGEVREYLFTTSSSDSTVEVVIEDLPPEKGARITEITEYPASLLSAGGSAGG [r6_530_JUSTAS] | 0.746 ± 0.068 kcal/mol | 1.17 ± 0.16 kcal/mol | 0.978 ± 0.21 kcal/mol |
| SAGGSAGGGMKITEITIEKDPENPDTYTITIKVDGKTYTITVKKGETLYIFDKDGKLVLEIKVDSAGGSAGG [r6_920_TrROS_Hall] | 4 ± 0.41 kcal/mol | 5.24 ± 0.14 kcal/mol | 5.1 ± 0.25 kcal/mol |
| SAGGSAGGGMKVKKIEIKKDPNNPNIYTITIELEDEPIEYTVPPSTPTTIKKPGGKPLYSSPLPSAGGSAGG [r6_922_JUSTAS] | -0.626 ± 0.24 kcal/mol | 0.986 ± 0.26 kcal/mol | 0.567 ± 0.15 kcal/mol |
| SAGGSAGGGMPPVVTTEISVEEVRPDERDENGNRYFLVTTTLTFPDSTVTTERWLEEEELEELLSAGGSAGG [r6_724_JUSTAS] | 1.3 ± 0.033 kcal/mol | 0.912 ± 0.16 kcal/mol | 1.09 ± 0.15 kcal/mol |
| SAGGSAGGGMPSITLLETVEEKLPGSRTRVTTLSYDPATGNLVVTTTTFASPGTSTTSTTVLPPSAGGSAGG [r6_745_JUSTAS] | 1.13 ± 0.038 kcal/mol | 1.51 ± 0.069 kcal/mol | 1.33 ± 0.074 kcal/mol |
